Measurements from patent publication US10175123B2, “MEMS-based calorimeter, fabrication, and use thereof” (THE TRUSTEES OF COLUMBIA UNIVERSITY IN THE CITY OF NEW YORK, priority 2013, dated 2019).

Experiments:
[1] = MEMS DSC measurement of lysozyme unfolding; assay type: physicochemical; conditions: 1 to 20 mg/mL in 0.1 M Glycine-HCl buffer pH 2.5, scan 25-75 °C at 5 °C/min
Method: DSC measurements of biomolecules were performed using the calibrated microdevice, whose sample chamber and reference chamber were respectively filled with biological sample and buffer solutions, scanned in a range of temperature of interest. The temperature sensors were used to monitor the temperatures of calorimetric chambers while the device output was obtained in real time to compute the biomolecular thermal power. Before DSC measurements, the baseline in device output, i.e., the thermopile output voltage in the absence of a differential power input, during temperature scanning was measured with both calorimetric chambers filled with buffer solutions. […]
The thermopile output voltage as a function of temperature, corrected by baseline subtraction, was measured at varying protein concentrations ranging from 1 to 20 mg/mL (FIG. 10).
Despite the amplitude difference of device output at various protein concentrations, they all yielded consistent estimates of the thermodynamic properties associated with the protein unfolding process. In particular, the profile shape of c was generally not influenced by protein concentration, and ΔH was consistently determined to be approximately 450 kJ/mol with a corresponding melting temperature Tm of approximately 55° C.

[2] = typical range of published data; cited from earlier work
[3] = MEMS AC-DSC measurement of lysozyme unfolding; assay type: physicochemical; conditions: 10 and 20 mg/mL, 0.1 M Glycine-HCl pH 2.5, 25 to 82 °C at 5 °C/min, AC modulation 1, 5 or 10 Hz; depends on modulation frequency
Source text: The MEMS AC-DSC device calibrated above was used to measure the thermal behavior of protein unfolding.
Meanwhile, the specific heat capacity (c) of the protein as a function of temperature can be computed from the thermopile voltage amplitude (FIG. 19).

[4] = Polymer MEMS DSC measurement of lysozyme unfolding; assay type: physicochemical; conditions: 0.1 M Glycine-HCl buffer pH 2.5, 5 K/min, all concentrations except 1 mg/mL
Method: Before DSC measurements, the baseline, i.e., the thermopile output voltage in the absence of a differential power input, during temperature scanning in the range of interest was recorded with both calorimetric channels filled with buffer solutions. After which, characterizations of biomolecules were performed with the calorimetric channels, respectively filled with a biological sample and a buffer solutions, and scanned in the same range with pre-specified rate. The temperature sensors were used to monitor the temperatures of calorimetric channels, while the device output was obtained in real time to compute the biomolecular thermal power.
The calibrated polymer MEMS DSC device was then exploited to characterize protein unfolding. Glycine-HCl buffer (0.1 M, pH 2.5) was filled in both sample and reference calorimetric channels while the device was scanned at a constant rate of 5 K/min. […]
The thermopile differential voltage as a function of temperature, corrected by baseline subtraction, was measured at varying concentrations ranging from 1 to 20 mg/mL (FIG. 42). […] Furthermore, the differential heat capacity as a function of temperature and the calibrated device sensitivity can be calculated from the device voltage output by Equation 7. The sample heat capacity as a function of temperature was determined by: […]

lysozyme: targeted sample biomolecule, purchased from Sigma Aldrich (lyophilized powder, protein ≥90%)
melting temperature Tm [1]: approximately 55 °C | total change of molar enthalpy (ΔH) of unfolding [1]: approximately 450 kJ/mol | Tm, published data [2]: 55-58.9 °C | ΔH of unfolding, published data [2]: 377 to 439 kJ/mol | apparent melting temperature (Tm) [3]: 55-58 °C | melting temperature Tm [4]: 54.71 °C | total enthalpy change per mole (ΔH) of unfolding [4]: 421 kJ/mol
